{"source": "paper PMC12848304", "about": "“Small-molecule inhibitor of C‑terminal HSP90 dimerization modulates autophagy and functions synergistically with mTOR inhibition to kill cisplatin-resistant cancer cells” (Cell Death & Disease, 2025)", "proteins": {"B1": {"name": "recombinant HSP90α CTD (domain or fragment)", "chain": "not shown", "notes": "C-terminal domain (CTD) of heat shock protein 90 alpha (HSP90α; HSPC1/HSP90AA1); It says human (hHSP90) only of HSP90 in general and in the modelling; also called CTD r-HSP90α; HSP90 CTD; source: recombinant"}}, "target": "the molecule itself", "assay": "cross-linking; HSP90α CTD (2 μM) in Na2HPO4 (25 mM; pH 7.4), incubated 1 h at room temperature with different concentrations of VWK147, then BS3 100 μM for 1 h at room temperature; 12% SDS-PAGE and Western blot with anti-HSP90 (AC88)", "data": [{"protein": "B1", "values": [{"measurement": "stoichiometry N", "result": 2}]}]}
